Assays:
Experiment in all cases: Kinase Profiling Assay
Format in all cases: biochemical
Conditions in all cases: 100 μM
DMPK (h) = molecular target: T1, DMPK (h) (Homo sapiens, UniProt Q09013)
T1 construct: purchased Millipore
T1 sequence (Q09013 1-629): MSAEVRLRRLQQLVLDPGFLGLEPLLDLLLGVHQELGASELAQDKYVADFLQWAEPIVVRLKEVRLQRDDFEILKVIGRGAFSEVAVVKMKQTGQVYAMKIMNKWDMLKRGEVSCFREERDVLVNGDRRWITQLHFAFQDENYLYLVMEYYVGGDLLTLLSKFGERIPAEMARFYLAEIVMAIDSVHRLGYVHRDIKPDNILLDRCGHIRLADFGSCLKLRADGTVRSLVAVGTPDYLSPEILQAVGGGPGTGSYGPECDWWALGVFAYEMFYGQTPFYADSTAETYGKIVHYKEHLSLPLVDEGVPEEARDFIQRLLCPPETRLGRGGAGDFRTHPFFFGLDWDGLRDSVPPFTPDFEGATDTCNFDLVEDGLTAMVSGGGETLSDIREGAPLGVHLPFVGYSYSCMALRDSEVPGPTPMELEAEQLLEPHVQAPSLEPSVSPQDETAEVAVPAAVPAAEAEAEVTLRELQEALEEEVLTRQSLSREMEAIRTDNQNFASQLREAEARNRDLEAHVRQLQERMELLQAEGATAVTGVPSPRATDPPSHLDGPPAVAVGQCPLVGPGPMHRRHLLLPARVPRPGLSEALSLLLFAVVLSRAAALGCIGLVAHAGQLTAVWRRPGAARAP
Outline: (§1)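 Activity remaining relative to an uninhibited control was determined by scintillation counting of labeled substrate bound to a negatively charged filter. Radiolabeled phosphate came from ATP; the substrate carried positive charge. Duplicate measurements, within a 266-kinase human panel.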

EphA1 (h) = molecular target: T2, EphA1 (h) (Homo sapiens, UniProt P21709)
T2 construct: purchased Millipore
T2 sequence (P21709 26-976): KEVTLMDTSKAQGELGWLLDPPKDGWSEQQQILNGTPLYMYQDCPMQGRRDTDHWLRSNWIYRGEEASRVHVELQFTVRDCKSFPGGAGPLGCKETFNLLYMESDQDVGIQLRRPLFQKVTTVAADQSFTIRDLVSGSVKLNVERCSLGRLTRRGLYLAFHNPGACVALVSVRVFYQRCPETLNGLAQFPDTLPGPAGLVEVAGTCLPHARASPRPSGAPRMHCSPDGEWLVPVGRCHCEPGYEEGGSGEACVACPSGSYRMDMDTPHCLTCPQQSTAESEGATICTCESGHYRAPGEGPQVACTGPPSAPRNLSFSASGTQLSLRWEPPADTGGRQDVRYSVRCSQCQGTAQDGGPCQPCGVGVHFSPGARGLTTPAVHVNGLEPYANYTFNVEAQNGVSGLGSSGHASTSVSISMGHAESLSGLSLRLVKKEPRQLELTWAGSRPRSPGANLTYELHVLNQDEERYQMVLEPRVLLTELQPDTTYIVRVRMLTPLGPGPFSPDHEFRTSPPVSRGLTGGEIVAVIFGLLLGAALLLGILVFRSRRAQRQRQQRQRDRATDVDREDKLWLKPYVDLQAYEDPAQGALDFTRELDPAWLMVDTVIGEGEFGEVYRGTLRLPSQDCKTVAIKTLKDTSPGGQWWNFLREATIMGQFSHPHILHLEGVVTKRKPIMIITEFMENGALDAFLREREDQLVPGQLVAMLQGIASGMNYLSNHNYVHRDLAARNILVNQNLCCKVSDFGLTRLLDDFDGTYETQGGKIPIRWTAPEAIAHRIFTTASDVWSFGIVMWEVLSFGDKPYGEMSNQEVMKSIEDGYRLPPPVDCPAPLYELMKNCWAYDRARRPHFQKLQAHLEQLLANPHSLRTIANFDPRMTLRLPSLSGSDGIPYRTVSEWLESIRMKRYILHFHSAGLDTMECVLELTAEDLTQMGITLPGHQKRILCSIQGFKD
Outline: as §1

JAK2 (h) = molecular target: T3, JAK2 (h) (Homo sapiens, UniProt O60674)
T3 construct: purchased Millipore
T3 sequence (O60674 whole entry): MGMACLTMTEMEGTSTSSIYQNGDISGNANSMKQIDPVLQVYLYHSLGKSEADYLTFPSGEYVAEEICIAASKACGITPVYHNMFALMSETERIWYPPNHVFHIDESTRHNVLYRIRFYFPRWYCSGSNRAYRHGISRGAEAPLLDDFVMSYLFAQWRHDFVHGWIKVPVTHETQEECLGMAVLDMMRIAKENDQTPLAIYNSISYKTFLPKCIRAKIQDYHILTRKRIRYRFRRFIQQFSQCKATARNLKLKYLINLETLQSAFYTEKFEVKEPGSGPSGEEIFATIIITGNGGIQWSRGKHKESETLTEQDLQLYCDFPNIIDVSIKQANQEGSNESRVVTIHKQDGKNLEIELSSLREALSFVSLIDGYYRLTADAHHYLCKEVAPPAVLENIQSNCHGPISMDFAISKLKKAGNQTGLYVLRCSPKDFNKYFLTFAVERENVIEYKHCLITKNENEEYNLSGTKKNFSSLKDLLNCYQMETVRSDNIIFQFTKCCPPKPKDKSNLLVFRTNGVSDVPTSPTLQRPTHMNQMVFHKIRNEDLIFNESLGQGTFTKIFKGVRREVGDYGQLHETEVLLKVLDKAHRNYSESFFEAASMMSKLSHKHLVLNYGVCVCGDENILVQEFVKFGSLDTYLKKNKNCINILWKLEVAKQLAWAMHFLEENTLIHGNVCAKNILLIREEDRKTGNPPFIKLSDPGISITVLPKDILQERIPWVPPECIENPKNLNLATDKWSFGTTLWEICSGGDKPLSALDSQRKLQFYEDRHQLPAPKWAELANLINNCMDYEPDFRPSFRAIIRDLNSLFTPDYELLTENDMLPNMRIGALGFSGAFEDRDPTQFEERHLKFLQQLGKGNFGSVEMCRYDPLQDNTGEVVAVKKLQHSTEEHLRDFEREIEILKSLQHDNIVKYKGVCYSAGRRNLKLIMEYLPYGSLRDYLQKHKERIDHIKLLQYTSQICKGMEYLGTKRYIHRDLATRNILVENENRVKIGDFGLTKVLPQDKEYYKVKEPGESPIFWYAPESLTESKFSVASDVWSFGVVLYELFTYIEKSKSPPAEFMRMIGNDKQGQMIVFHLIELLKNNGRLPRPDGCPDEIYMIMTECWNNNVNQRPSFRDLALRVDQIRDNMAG
Outline: as §1

Met(D1246H) (h) = Met(D1246H) (h) (Homo sapiens, UniProt P08581, D1228H)
Outline: as §1

PRAK (h) = molecular target: T4, PRAK (h) (Homo sapiens, UniProt Q8IW41)
T4 sequence (Q8IW41 1-473): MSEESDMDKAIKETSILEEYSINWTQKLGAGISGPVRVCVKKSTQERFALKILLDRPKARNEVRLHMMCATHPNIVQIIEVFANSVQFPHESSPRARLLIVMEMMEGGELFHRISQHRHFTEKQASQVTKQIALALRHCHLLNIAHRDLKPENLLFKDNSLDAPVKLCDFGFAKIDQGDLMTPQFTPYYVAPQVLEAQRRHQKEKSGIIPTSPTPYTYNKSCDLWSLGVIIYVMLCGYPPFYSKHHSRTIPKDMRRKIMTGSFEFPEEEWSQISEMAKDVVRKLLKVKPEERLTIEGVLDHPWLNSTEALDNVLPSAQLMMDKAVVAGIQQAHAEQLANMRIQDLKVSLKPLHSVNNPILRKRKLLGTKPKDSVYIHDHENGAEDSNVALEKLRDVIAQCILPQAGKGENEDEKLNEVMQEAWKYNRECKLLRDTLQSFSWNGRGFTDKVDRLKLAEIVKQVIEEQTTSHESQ
Outline: as §1

eEF-2K (h) = molecular target: T5, eEF-2K (h) (Homo sapiens, UniProt O00418)
T5 construct: purchased Millipore
Outline: as §1

Sequence | % activity (DMPK (h)) | % activity (EphA1 (h)) | % activity (JAK2 (h)) | % activity (Met(D1246H) (h)) | % activity (PRAK (h)) | % activity (eEF-2K (h))
FAKLAARLYRKALARQLGVAA [MMI-0300] | 59% | 73% | 133% | 125% | 128% | 91%
HRRIKAWLKKIKALARQLGVAA (Mammalian) [MMI-0500] | 12% | 40% | 49% | 150% | 95% | 43%
YARAAARQARAKALNRQLGVA (Mammalian) [MMI-0200] | 66% |  | 131% | 139% |  | 
KAFAKLAARLYRKALARQLGVAA [MMI-0400] | 54% | 61% |  | 68% | 118% | 43%

Source: patent publication US10500249B2, “Compositions and methods for preventing or treating diseases, conditions, or processes characterized by aberrant fibroblast proliferation and extracellular matrix deposition” (MOERAE MATRIX, INC., priority 2014, dated 2019)
